# Measurements from publication PMC8928417.
# pKd: −log10 of the molar value.
# Target: biotinylated histone H3 peptide trimethylated at lysine 27, H3K27me3 (21–44) (UniProt P68431)
# Experiment: peptide or protein array
substance,measurement,value
"polycomb-based transcription factor (PcTF), monovalent (from UniProt Q9HC52 1-62) (designed binder)",pKd,5.05 to 5.29
